Tests used:
[1] = molecular target: truncated peptide HTT(1-14) (human) (UniProt P42858); test: ITC; isothermal calorimetry of C4 scFv with HTT(1-17) and truncated peptides; conditions not shown (Fig. S3)
[2] = molecular target: HTT(1-17) peptide, the 17 N-terminal residues of huntingtin (human) (UniProt P42858); test: as above

fold decrease in binding affinity compared to HTT(1-17) [1]: 10 fold
Kd [2]: 50 nM
Substance: C4 single-chain Fv antibody (C4 scFv)

Source: article PMC4451460
